± gives the uncertainty stated by the source.

The labels stand for the following.
B1: Transcription factor SOX-4, residues 60 to 127; numbered along this chain, Q06945 (parent)
chain: KRPMNAFMVWSQIERRKIMEQSPDMHNAEISKRLGKRWKLLKDSDKIPFIREAERLRLKHMADYPDYK

Variants of B1 are the subject of the series. The experiment in a line: abundance fitness (aPCA) (normalised: wild type 0, dead -1); higher = more abundant; growth selection in yeast, the domain comes from the species named. The following applies: Homo sapiens.
For the variant L56V, the abundance fitness is -0.286 ± 0.063.
As for L56Q, the abundance fitness is -0.108 ± 0.08.
The value for L56G was -0.341 ± 0.071; that for L56C was -0.408 ± 0.1; that for K46D was -0.524 ± 0.072.
The value for K46H was -1.09 ± 0.14; that for K46T was -0.694 ± 0.06.
In the case of K46W, the abundance fitness is -0.95 ± 0.11.
The same measure for K46Y: -1 ± 0.13; for K46C: -0.814 ± 0.087; for E20A: -0.265 ± 0.098.
The same measure for E20H: -0.143 ± 0.24; for E20G: -0.343 ± 0.11.
For the variant E20M, the abundance fitness is -0.239 ± 0.087.
The same measure for E20K: -0.439 ± 0.16.
The same measure for E20R: -0.364 ± 0.083; for E20D: -0.255 ± 0.16; for E20W: -0.626 ± 0.1.
The same measure for E20C: -0.478 ± 0.19; for E20Q: -0.142 ± 0.33; for E20L: -0.284 ± 0.076.
As to W10P, the abundance fitness is -0.751 ± 0.13.
The same measure for W10F: -0.155 ± 0.12.
For K42L, the abundance fitness is -0.368 ± 0.055.
The same measure for K42N: -0.212 ± 0.17; for K42H: -0.487 ± 0.28.
The value for K42Q was -0.104 ± 0.063; that for R15F was -0.464 ± 0.045; that for R15W was -0.502 ± 0.063.
The value for R15Q was -0.3 ± 0.069; that for R15P was -0.686 ± 0.14; that for R15H was -0.428 ± 0.14.
R15T: the abundance fitness is -0.345 ± 0.078.
The value for R15K was -0.022 ± 0.052.
As for R15C, the abundance fitness is -0.357 ± 0.049.
The same measure for R15Y: -0.375 ± 0.066.
I13E: the abundance fitness was -0.163 ± 0.1.
The value for I13N was -0.164 ± 0.082; that for I13T was -0.235 ± 0.095.
The same measure for I13C: -0.29 ± 0.17; for I13K: -0.195 ± 0.11.
The value for D66C was -0.422 ± 0.1.
With D66I, the abundance fitness is -0.13 ± 0.19.
The value for D66V was -0.157 ± 0.049; that for D66Y was -0.537 ± 0.26; that for P3G was -0.166 ± 0.036.
The same measure for P3I: -0.416 ± 0.079; for Q21D: -0.346 ± 0.1; for Q21I: -0.128 ± 0.088.
The value for Q21W was -0.884 ± 0.17.
As for Q21E, the abundance fitness is -0.062 ± 0.12.
The same measure for Q21F: -0.426 ± 0.14.
Regarding M61T, the abundance fitness is -0.025 ± 0.093.
The same measure for M61S: 0.001 ± 0.071; for M61Y: -0.319 ± 0.25; for M61R: -0.134 ± 0.057.
The value for M61G was 0.022 ± 0.069; that for M61I was -0.238 ± 0.072; that for M61N was -0.104 ± 0.13.
The same measure for R57G: -0.247 ± 0.064.
As to R57D, the abundance fitness was -0.372 ± 0.11.
Turning to R57F, the abundance fitness stood at 0.056 ± 0.22.
For the variant R57M, the abundance fitness is -0.135 ± 0.086.
The value for R57S was -0.309 ± 0.08; that for A53Y was -0.347 ± 0.12; that for A53R was -0.924 ± 0.087.
The value for A53W was -1.19 ± 0.19; that for A53H was -0.42 ± 0.17.
The value for A53P was -1.19 ± 0.3.
Take A53F: the abundance fitness is -0.841 ± 0.27.
The same measure for A53M: -0.585 ± 0.088; for M19Y: -0.459 ± 0.064; for M19E: -0.019 ± 0.067.
The same measure for M19S: -0.212 ± 0.039; for M19D: -0.463 ± 0.088; for M19L: 0.116 ± 0.041.
The value for M19T was -0.338 ± 0.098.
Consider A62S, for which the abundance fitness is -0.021 ± 0.037.
The value for A62E was -0.078 ± 0.068; that for A62R was -0.033 ± 0.041.
On to A62K, for which the abundance fitness is 0.008 ± 0.063.
The same measure for A62D: 0.015 ± 0.046.
The value for V9N was -0.609 ± 0.21; that for V9Q was -0.76 ± 0.16; that for V9E was -0.856 ± 0.19.
On to V9H, for which the abundance fitness is -0.733 ± 0.18.
The same measure for V9F: -0.482 ± 0.15.
On to K32G, for which the abundance fitness was -0.361 ± 0.038.
The value for K32D was -0.012 ± 0.044; that for K32V was -0.116 ± 0.035.
The same measure for K32C: -0.167 ± 0.046; for K32A: -0.108 ± 0.047; for K32E: 0.183 ± 0.044.
The value for K32Q was 0.066 ± 0.079; that for D45E was -0.074 ± 0.089.
As for D45V, the abundance fitness is -0.414 ± 0.082.
The value for D45L was -0.378 ± 0.09; that for D45F was -0.39 ± 0.48.
The same measure for D45M: -0.395 ± 0.14; for D45R: -0.74 ± 0.094; for R33C: 0.083 ± 0.082.
The same measure for R33Q: 0.332 ± 0.077.
On to R33T, for which the abundance fitness was determined as 0.085 ± 0.097.
The value for R33N was 0.126 ± 0.1; that for R33E was 0.316 ± 0.067.
The value for R33G was -0.283 ± 0.064.
The value for R33S was -0.1 ± 0.07; that for R33I was -0.051 ± 0.2.
For R37T, the abundance fitness was -0.05 ± 0.089.
The value for R37E was 0.043 ± 0.07; that for R37L was -0.364 ± 0.097; that for R37V was -0.2 ± 0.06.
Regarding R37N, the abundance fitness stood at 0.101 ± 0.29.
The same measure for S11V: -0.529 ± 0.058; for S11R: -0.63 ± 0.058.
The value for S11D was -0.758 ± 0.085; that for S11M was -0.394 ± 0.079; that for S11T was -0.69 ± 0.11.
Consider G35P, for which the abundance fitness is -0.496 ± 0.13.
The value for G35I was 0.156 ± 0.042; that for G35T was 0.15 ± 0.049.
Consider G35E, for which the abundance fitness is 0.262 ± 0.057.
The same measure for P65E: -0.025 ± 0.076; for P65R: -0.174 ± 0.056; for P65T: -0.064 ± 0.075.
The same measure for P65A: -0.267 ± 0.083; for P65Y: -0.124 ± 0.24.
Consider P65G, for which the abundance fitness was -0.059 ± 0.09.
For the variant P65M, the abundance fitness is -0.193 ± 0.089.
As to K68Y, the abundance fitness is -0.125 ± 0.2.
As to K68R, the abundance fitness is -0.068 ± 0.079.
The value for K68T was -0.436 ± 0.45.
The value for R55K was -0.08 ± 0.072; that for R55D was -0.136 ± 0.07.
With R55C, the abundance fitness was -0.292 ± 0.056.
The value for R55W was -0.44 ± 0.047; that for R55L was -0.326 ± 0.046; that for R55G was -0.337 ± 0.035.
The value for R55Q was -0.188 ± 0.08.
The same measure for R16P: -0.234 ± 0.066; for R16V: -0.111 ± 0.038; for R16I: -0.216 ± 0.053.
As to R16Y, the abundance fitness is -0.416 ± 0.06.
The same measure for R16S: -0.174 ± 0.041; for D24T: -0.206 ± 0.068; for D24L: -0.251 ± 0.039.
For the variant D24W, the abundance fitness was -0.188 ± 0.063.
Turning to D24E, the abundance fitness is -0.052 ± 0.051.
The value for D24I was -0.632 ± 0.1; that for D24G was -0.123 ± 0.042; that for D24P was -0.564 ± 0.11.
The value for D24Q was -0.114 ± 0.063; that for D24A was -0.239 ± 0.06; that for D24K was -0.141 ± 0.064.
The value for D24C was -0.335 ± 0.061.
On to I47T, for which the abundance fitness is -0.178 ± 0.046.
The value for I47E was 0.095 ± 0.059; that for I47P was -0.796 ± 0.4; that for I47K was -0.112 ± 0.074.
With I47F, the abundance fitness is -0.241 ± 0.051.
In the case of I50W, the abundance fitness is -0.633 ± 0.15.
The value for I50C was -0.51 ± 0.2; that for I50T was -0.337 ± 0.086; that for I50K was -0.362 ± 0.14.
The value for E52D was -0.223 ± 0.13; that for E52G was -0.375 ± 0.13; that for E52H was -0.726 ± 0.3.

The values above are taken from the Human Domainome abundance scans (Beltran et al. 2025).
